From PMC4176334

Tests used:
[1] = biological target: T1, M. tuberculosis RNAP core;SigJ (Mycobacterium tuberculosis;Mycobacterium tuberculosis H37Rv?) (UniProt P9WGZ1+P9WGY9+P9WGY7+P9WGY5+L0TCG5); assay: KMnO4 footprinting
[2] = biological target: T2, M. tuberculosis RNAP core;SigJ;RbpA (Mycobacterium tuberculosis;Mycobacterium tuberculosis H37Rv?;Mycobacterium tuberculosis) (UniProt P9WGZ1+P9WGY9+P9WGY7+P9WGY5+L0TCG5+P9WHJ5); assay: KMnO4 footprinting
[3] = biological target: T1, M. tuberculosis RNAP core;SigJ (Mycobacterium tuberculosis;Mycobacterium tuberculosis H37Rv?); assay: DNase I footprinting
[4] = biological target: T2, M. tuberculosis RNAP core;SigJ;RbpA (Mycobacterium tuberculosis;Mycobacterium tuberculosis H37Rv?;Mycobacterium tuberculosis); assay: DNase I footprinting
[5] = biological target: M. tuberculosis RNAP core;SigA;RbpA (Mycobacterium tuberculosis;Mycobacterium tuberculosis;Mycobacterium tuberculosis) (UniProt P9WGZ1+P9WGY9+P9WGY7+P9WGY5+P9WGI1+P9WHJ5); assay: EMSA
[6] = biological target: M. tuberculosis RNAP core;SigA (Mycobacterium tuberculosis;Mycobacterium tuberculosis) (UniProt P9WGZ1+P9WGY9+P9WGY7+P9WGY5+P9WGI1); assay: EMSA

Measured: binding

GCCCTCCCGCCGACCCATGCTGGAATTCATAACATCAAGGACGAGACAGCCCCGCCGAATGTGACAGCAACCGGCGATTTCAGCGCTCGGCGC (double strand) [sigIP promoter]
binds: [1] | [2] | [3] | [4]

TTGAGTTCTCAAACAACACGCTTGCTTGTTTCCGCCCGCTTCGGGGCAACCCTGCCAGTCTAATACAAATCCGGCAATGGAGTCAAGACCAGGTTCGGTCATCCATAGATATCCATAGGTGACCGTCGCCTAACAGCATACCCGTTCGAT (double strand) [rrnAP3 promoter]
binds: [5] | [6]
